Molecular target: 抗Fasモノクローナル抗体HFE7A(マウス−マウスハイブリドーマHFE7A、FERM BP−5828が産生)
Test: 200 µg peptide pre-incubated with 0.25 µg HFE7A, then flow cytometry on WR19L12a cells; D355-364 control set to 100 % fluorescence

Row | HFE7AとWR19L12a細胞との結合の阻害(%) | Binder
1 | 60 % | KCRCKPNFFC [合成ペプチドP110]
2 | 50 % | EINCTRTQNT [合成ペプチドP100]
